Assay results reported in publication PMC12316982 (Nature Communications, 2025).

Experiments:
Experiment in all cases: ELISA
Details in all cases: both partners purified
[1] = target: stabilized neuraminidase protein (sNAp) of A/Michigan/45/2015 (MI15, H1N1) (Influenza A virus A/Michigan/45/2015 …, UniProt A0A0X9QTS2, stabilised)
[2] = target: stabilized neuraminidase protein (sNAp) of A/New Caledonia/20/1999 (NC99, H1N1) (Influenza A virus A/New …, UniProt Q7TG96, stabilised)
[3] = target: T1, NA of the influenza B-Victoria lineage virus B/Colorado/06/2017 (B/Vic CO17) (Influenza B virus B/Colorado/06/2017 …, UniProt A0A1X9RX69, strain)
T1 construct: not shown: His6, N-terminal, kept

Measured: binding result

B1: NCS.1 (human IgG1) (antibody, V domains shown)
VH: QVQLPESGPRLVKPSETLSLTCSVSGESISSGGYYWTWIRQHPGKGLEWIGNIFDTGSTHYSPSLKTRLTISIDTSKNQFYLRLNSATAADTAVYYCARVGYSLETDRPYYFGLDVWGQGTTVTVSS
VL: DIVMTQSPLSLPVTPGEPASISCRSSQSLLHSNGYTYLDWYLQKPGQSPQLLIYLASNRASGVPDRFSGSGSGTYFTLKISRVEAEDVGVYYCMQAVQTPWTFGQGTKVEIK
binds: [1] | [2] | [3]

B2: NCS.1.3 (human IgG1) (antibody, V domains shown)
VH: QVQLQESGPRLVKPSETLSLTCSVSGESISSGGYYWTWIRQHPGKGLEWIGNIFDTGSTDYSPSLKTRLTISIDTSKNQFYLRLTSATAADTAVYYCARVGFSLETDRPYYLGLDVWGQGTTVTVSS
VL: DIVMTQSPLTLPVTPGEPASISCRSSQSLLHSNGYTYLDWYLQKPGQSPQLLIYFASNRASGVPDRFSGSGSGTYFTLKISRVEAEDVGVYYCMQAVQSPWTFGQGTKVEIK
binds: [1] | [2] | [3]

B3: NCS.1.1 (human IgG1) (antibody, V domains shown)
VH: QVQLQESGPRLVKPSETLSLTCSVSGESISSGGYYWTWIRQHPGKGLEWIGNIFDTGSTDYSPSLKTRLTISIDTSKNQFYLRLNSATAADTAVYYCARVGFSLETDRPYYLGLDVWGQGTTVTVSS
VL: DIVMTQSPLSLPVTPGEPASISCRSSQSLLHSNGYTYLDWYLQKPGQSPQLLISFTSNRASGVPDRFSGSGSGTYFTLKISRVEAEDVGVYYCMQAVQTPWTFGQGTKVEIK
binds: [1] | [2] | [3]
